Changes are numbered by the printed parent chain. Names may count otherwise.
B1: TsAI (Thermococcus sibiricus MM 739) (protein)
chain: MKKLLIIGTGGTIASAKTEQGYKSVLKIDEILKLAKIKLENGYKIDSTNIMNIDSTLIHPEDWEIIAKEVFKALDDYDGIIITHGTDTLAYTASMLSFMIKNPNKPIVLTGSMLPITENGSDAPRNIRTAIKFAMEDVAGVFVAFMDKIMLGCRTSKVRTLGLNAFMSINYPDVAYVKGEKILYNIPKEKFQPNGSPELDTKYEPRVVVLRVTPGLGGEIIDAVLDAGYKGIVLEGYGAGGLPYRKSNLLSKIKEITPKIPVIMTTQALYDGVDMRKYEVGRKALETGIIPAKDMTKEATITKLMWALGHTKDVEKIREIMHTNYVNEIKS
notes: full-length, 331 residues, homodimer
B2: TsAI (Thermococcus sibiricus MM 739; D54G/T56Q) (protein)
chain: B1 chain with D54G, T56Q
notes: as for B1

Assays:
Experiment in all cases: direct Nesslerization (ammonia release)
TsAI = target: T1, TsAI (Thermococcus sibiricus, UniProt C6A532, D54G/T56Q); assay type: biochemical; settings: 90 °C, 0.05 M Tris-HCl pH 9.0; 0.25–20 mM substrate
T1 construct: gene TSIB_1676; full-length, 331 residues, homodimer
T1 sequence (C6A532 entry or part of it D54G/T56Q): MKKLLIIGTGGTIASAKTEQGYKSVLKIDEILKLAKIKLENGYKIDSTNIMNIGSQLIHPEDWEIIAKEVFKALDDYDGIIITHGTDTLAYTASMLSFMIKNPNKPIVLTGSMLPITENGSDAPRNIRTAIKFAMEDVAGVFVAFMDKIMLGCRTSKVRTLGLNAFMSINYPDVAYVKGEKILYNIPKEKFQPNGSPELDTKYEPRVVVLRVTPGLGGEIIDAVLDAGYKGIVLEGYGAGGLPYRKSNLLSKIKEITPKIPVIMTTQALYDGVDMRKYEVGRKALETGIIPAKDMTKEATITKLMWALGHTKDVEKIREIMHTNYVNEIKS
Description: (§1) direct Nesslerization (ammonia release) on TsAI

[1] = substrate: NC(=O)C[C@H](N)C(=O)O; assay type: biochemical, Thermococcus sibiricus; settings: 90 °C, 0.05 M Tris-HCl pH 9.0, 0.25–20 mM substrate
Description: as §1

[2] = substrate: NC(=O)C[C@@H](N)C(=O)O; assay type: biochemical, Thermococcus sibiricus; settings: 90 °C, 0.05 M Tris-HCl pH 9.0, 0.25–30 mM substrate
Description: as §1

[3] = substrate: NC(=O)CC[C@H](N)C(=O)O; assay type: biochemical, Thermococcus sibiricus; settings: 90 °C, 0.05 M Tris-HCl pH 9.0, 0.25–30 mM substrate
Description: as §1

[4] = substrate: NC(=O)CC[C@@H](N)C(=O)O; assay type: biochemical, Thermococcus sibiricus; settings: 90 °C, 0.05 M Tris-HCl pH 9.0, 0.25–40 mM substrate
Description: as §1

| Molecule | Km (TsAI) | Km [1] | Vmax [1] | Km [2] | Vmax [2] | Km [3] | Vmax [3] | Km [4] | Vmax [4] |
| --- | --- | --- | --- | --- | --- | --- | --- | --- | --- |
| NC(=O)C[C@H](N)C(=O)O [L-asparagine] | 6.03 ± 0.15 mM | – | – | – | – | – | – | – | – |
| B1 | – | 3.10 ± 0.15 mM | 4020 µM/min | 8.63 ± 0.48 mM | 660 µM/min | 11.09 ± 0.25 mM | 280 µM/min | 13.86 ± 0.86 mM | 180 µM/min |
| B2 | – | – | – | 9.18 ± 0.86 mM | 590 µM/min | 11.41 ± 0.27 mM | 250 µM/min | 14.40 ± 1.60 mM | 180 µM/min |
